From patent US20170219596A1 come the findings set out here.

In one test the target is dCas9-SunTag10×_v4. Briefly: cell-based or functional assay.
In test [1] the target is mito-mCherry-4×GCN4pep (yeast). Put plainly: FRAP of scFv-GCN4-GFP bound to the mitochondrial scaffold in U2OS cells.
The target in test [2] is mito-mCherry-4×GCN4pep with short linker (GGSGG; SEQ ID NO:3) (yeast). Briefly: quantitative fluorescence microscopy on mitochondria, normalized to a sfGFP-mCherry fusion; antibodies per 4× array, short linker.

In the test with dCas9-SunTag10×_v4, scFv-GCN4-GFP-NLS-VP64 returned an activation of CDKN1B transcription (mRNA by qPCR, K562 cells) of 330% and an activation of CXCR4 expression (CXCR4 protein level by FACS, K562 cells) of 10 to 50 fold.

In test [1], scFv-GCN4-sfGFP-GB1 returned a half-life of GFP fluorescence recovery (FRAP) of 5 to 10 min. The average GFP:mCherry molar ratio in test [2] stood at 3.4.
